# Measured values reported in US20260070975A1 (SANTA ANA BIO, published 2026).
# Numbering of substitutions follows the chain as printed.
# T1: His-tagged FLT3 extracellular domain (UniProt P36888 27-543, limits assumed)
# T1 construct: extracellular domain; also called c-Kit family member; not shown: His tag
# T1 sequence (looked up): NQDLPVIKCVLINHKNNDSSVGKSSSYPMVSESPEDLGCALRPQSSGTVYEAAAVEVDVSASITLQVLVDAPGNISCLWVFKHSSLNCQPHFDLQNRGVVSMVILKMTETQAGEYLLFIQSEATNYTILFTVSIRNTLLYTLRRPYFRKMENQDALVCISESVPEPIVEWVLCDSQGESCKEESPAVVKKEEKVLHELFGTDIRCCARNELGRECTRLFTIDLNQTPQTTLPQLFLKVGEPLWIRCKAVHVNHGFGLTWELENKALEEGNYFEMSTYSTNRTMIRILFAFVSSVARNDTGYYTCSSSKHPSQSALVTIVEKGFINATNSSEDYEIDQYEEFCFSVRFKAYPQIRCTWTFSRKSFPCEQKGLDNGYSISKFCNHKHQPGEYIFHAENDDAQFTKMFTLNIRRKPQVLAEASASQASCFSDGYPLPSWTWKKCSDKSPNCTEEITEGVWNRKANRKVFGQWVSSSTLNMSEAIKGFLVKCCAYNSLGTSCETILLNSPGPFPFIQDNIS
# B1: hSR1-1 (antibody, human IgG1, kappa, V domains shown)
# VH: QVQLVQSGAEVKKPGASVKVSCKASGYTFTSYNMHWVRQAPGQGLEWMGVIYSGNGDTSYAQKFQGRVTMTADTSTSTAYMELSSLRSEDTAVYYCARERDTRFGNWGQGTLVTVSS
# VL: DIQLTQSPSSLSASVGDRATITCRASESVDIYGNSFMHWYQQKPGKAPKLLIYLASNLESGVPSRFSGSGSGTDFTLTISSVQPEDFATYYCQQNNEDPYTFGQGTKLEIKR
# notes: Humanized anti-c-Kit antibody; also called humanized SR1-1; hSR1-H2 / hSR1-L2
# B2: hSR1-2 (antibody, human IgG1, kappa, V domains shown)
# VH: B1 VH with V20M, M48I, V68A, M70L
# VL: B1 VL
# notes: also called humanized SR1-2; hSR1-H3 / hSR1-L2
# B3: hSR1-6 (antibody, human IgG1, kappa, V domains shown)
# VH: B1 VH with V20M, M48I, V68A, M70L
# VL: B1 VL with G72R
# notes: also called humanized SR1-6; hSR1-H3 / hSR1-L2r
# B4: hSR1-4 (antibody, human IgG1, kappa, V domains shown)
# VH: B1 VH with V20M, M48I, V68A, M70L, T74K
# VL: B1 VL
# notes: also called humanized SR1-4; hSR1-H3b / hSR1-L2
# B5: hSR1-3 (antibody, human IgG1, kappa, V domains shown)
# VH: B1 VH with T74K
# VL: B1 VL
# notes: also called humanized SR1-3; hSR1-H2b / hSR1-L2
# B6: hSR1-5 (antibody, human IgG1, kappa, V domains shown)
# VH: B1 VH
# VL: B1 VL with G72R
# notes: also called humanized SR1-5; hSR1-H2 / hSR1-L2r
# B7: anti-siglec/anti-c-Kit bispecific hRND-3/hSR1-1 (bispecific antibody, V domains shown)
# VH 1: QVQLVQSGAEVKKPGASVKLSCKASGYAFTSYWMHWVRQAPGQRLEWIGEIYPTNGGTTYAQKFQGRATLTVDKSTSTAYMELSRLRSDDTAVYYCTIEDFYAMDYWGQGTTVTVSS
# VL 1: DIVMTQTPLSLSVTPGQPASISCKSSQSLLDSDGKTSLNWLLQKPGQSPQRLIYLVSKLDSGVPDRFSGSGSGTDFTLKISRVEAEDVGVYYCWQGTHFPYTFGQGTKLEIK
# VH 2: B1 VH
# VL 2: DIQLTQSPSSLSASVGDRATITCRASESVDIYGNSFMHWYQQKPGKAPKLLIYLASNLESGVPSRFSGSGSGTDFTLTISSVQPEDFATYYCQQNNEDPYTFGQGTKLEIK
# B8: anti-siglec/anti-c-Kit bispecific JML-1/hSR1-1 (bispecific antibody, V domains shown)
# VH 1: KVQLLESGGGLVQPGRSLRLSCAASGFTFDDYGMHWVRQAPGKGLEWVSGISWNSGSIGYADSVKGRFTISRDNSKNTLYLQMNSLRAEDTAVYYCARGGQTIDIWGQGTMVTVSS
# VL 1: not shown
# VH 2: B1 VH
# VL 2: B7 VL 2
# B9: Murine anti-siglec-6 RND (mRND) (antibody, mouse IgG2a, kappa, V domains shown)
# VH: QVQLQQPGAELVKPGASVKLSCKASGYAFTSYWMHWVKLRPGQGFEWIGEIYPTNGGTTYNEKFKRKATLTVDKSSSTAYMQLSSLTSEDSAVYYCTIEDFYAMDYWGQGTSVTVSS
# VL: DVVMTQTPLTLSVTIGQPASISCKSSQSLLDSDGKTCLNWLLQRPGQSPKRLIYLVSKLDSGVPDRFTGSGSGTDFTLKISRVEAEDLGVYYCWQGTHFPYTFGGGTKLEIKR
# notes: also called murine RND; copies: 2 + 2
# B10: Murine anti-c-Kit SR1 (mSR1) (antibody, mouse IgG2a, kappa)
# heavy: QVQLQQPGAELVKPGASVKMSCKASGYTFTSYNMHWVKQTPGQGLEWIGVIYSGNGDTSYNQKFKGKATLTADKSSSTAYMQINSLTSEDSAVYYCARERDTRFGNWGQGTLVTVSAAKTTAPSVYPLAPVCGDTTGSSVTLGCLVKGYFPEPVTLTWNSGSLSSGVHTFPAVLQSDLYTLSSSVTVTSSTWPSQSITCNVAHPASSTKVDKKIEPRGPTIKPCPPCKCPAPNLLGGPSVFIFPPKIKDVLMISLSPIVTCVVVDVSEDDPDVQISWFVNNVEVHTAQTQTHREDYNSTLRVVSALPIQHQDWMSGKEFKCKVNNKDLPAPIERTISKPKGSVRAPQVYVLPPPEEEMTKKQVTLTCMVTDFMPEDIYVEWTNNGKTELNYKNTEPVLDSDGSYFMYSKLRVEKKNWVERNSYSCSVVHEGLHNHHTTKSFSRTPGK
# light: NIVLTQSPASLAVSLGLRATISCRASESVDIYGNSFMHWYQQKPGQPPKLLIYLASNLESGVPARFSGSGSRTDFTLTIDPVEADDAATYYCQQNNEDPYTFGGGTKLEIKRADAAPTVSIFPPSSEQLTSGGASVVCFLNNFYPKDINVKWKIDGSERQNGVLNSWTDQDSKDSTYSMSSTLTLTKDEYERHNSYTCEATHKTSTSPIVKSFNRNEC
# Molecular target: Human c-Kit (BLI analyte) (human, UniProt P10721 26-520, limits assumed)
# Test: BLI (Octet), antibody on capture sensor
# Procedure: (§1) Further, binding affinities of c-Kit antibodies to human c-Kit and cynomolgus c-Kit were measured by biolayer interferometry ([…]) using an Octect instrument. Briefly, capture sensors were loaded with test antibodies with 3-fold dilutions. The association and dissociation rates to were determined and used to calculate the equilibrium dissociation constant KD (Table 3).
# Chain of Human c-Kit (BLI analyte) (P10721 26-520 limits assumed): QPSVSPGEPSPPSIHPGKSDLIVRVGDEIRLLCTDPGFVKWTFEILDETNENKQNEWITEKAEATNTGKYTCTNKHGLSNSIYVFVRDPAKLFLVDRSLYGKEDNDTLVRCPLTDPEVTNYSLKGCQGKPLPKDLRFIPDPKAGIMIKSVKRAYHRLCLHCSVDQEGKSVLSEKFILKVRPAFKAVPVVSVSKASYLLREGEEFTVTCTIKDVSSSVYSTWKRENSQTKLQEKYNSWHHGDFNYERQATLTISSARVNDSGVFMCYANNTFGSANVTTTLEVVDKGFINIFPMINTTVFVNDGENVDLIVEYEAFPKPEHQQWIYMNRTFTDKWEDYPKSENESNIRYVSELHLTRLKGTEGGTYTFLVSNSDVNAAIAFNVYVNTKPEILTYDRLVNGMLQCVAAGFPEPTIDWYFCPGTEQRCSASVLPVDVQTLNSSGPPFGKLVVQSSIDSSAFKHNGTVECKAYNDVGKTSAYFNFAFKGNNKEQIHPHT
row,Kd [nM],Binder
1,0.199,B1
2,0.245,B2
3,0.247,B3
4,0.386,B4
5,0.256,B5
6,0.256,B6

# Molecular target: T2, Cynomolgus c-Kit (BLI analyte) (cynomolgus)
# T2 construct: also called Cynomoguls c-Kit
# Test: BLI (Octet), antibody on capture sensor
# Procedure: as §1
row,Kd [nM],Binder
1,0.232,B1
2,0.389,B2
3,0.296,B3
4,0.563,B4
5,0.332,B5
6,0.405,B6

# Molecular target: T3, c-Kit expressed on the cell surface of M-07e cells (human, UniProt P10721 26-976)
# Test: cell-based or functional assay
# T3 sequence (P10721 26-976): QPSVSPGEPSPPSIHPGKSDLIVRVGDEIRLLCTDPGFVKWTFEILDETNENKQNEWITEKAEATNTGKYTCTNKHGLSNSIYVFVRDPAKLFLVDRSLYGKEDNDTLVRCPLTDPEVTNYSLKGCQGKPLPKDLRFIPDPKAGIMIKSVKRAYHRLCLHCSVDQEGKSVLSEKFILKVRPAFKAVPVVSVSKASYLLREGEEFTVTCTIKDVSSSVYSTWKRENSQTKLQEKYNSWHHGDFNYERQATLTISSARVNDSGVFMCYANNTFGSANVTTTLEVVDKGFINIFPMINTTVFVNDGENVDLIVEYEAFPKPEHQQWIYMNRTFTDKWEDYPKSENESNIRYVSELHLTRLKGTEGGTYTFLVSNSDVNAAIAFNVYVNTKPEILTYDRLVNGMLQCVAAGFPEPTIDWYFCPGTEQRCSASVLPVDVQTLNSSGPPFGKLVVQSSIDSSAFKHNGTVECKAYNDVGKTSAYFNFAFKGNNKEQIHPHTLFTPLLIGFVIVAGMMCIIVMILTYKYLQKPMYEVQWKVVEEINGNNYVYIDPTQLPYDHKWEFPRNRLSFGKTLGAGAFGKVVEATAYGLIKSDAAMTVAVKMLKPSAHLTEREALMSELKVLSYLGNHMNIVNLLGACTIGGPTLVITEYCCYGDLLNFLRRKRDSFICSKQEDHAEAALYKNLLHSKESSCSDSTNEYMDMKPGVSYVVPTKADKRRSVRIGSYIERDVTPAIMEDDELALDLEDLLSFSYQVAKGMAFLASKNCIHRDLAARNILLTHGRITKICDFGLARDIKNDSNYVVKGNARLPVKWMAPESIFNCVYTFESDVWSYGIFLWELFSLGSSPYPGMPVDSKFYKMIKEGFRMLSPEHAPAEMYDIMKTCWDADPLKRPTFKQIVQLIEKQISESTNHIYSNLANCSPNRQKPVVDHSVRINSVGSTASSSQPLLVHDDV
row,IC50 (read off the curve) [nM],Binder
1,~0.2,B7
2,~0.3,B8

# Molecular target: T3, c-Kit expressed on the cell surface of …
# Test: flow cytometry on M-07e cells
# Procedure: (§2) Target binding of c-Kit antibodies to c-Kit-expressing cells was assessed by flow cytometry. Cultured M-07e cells were resuspended in FACS Blocking Buffer (PBS+10% normal human serum) for 30 minutes. Following washing, cells were incubated with c-Kit antibodies in FACS Buffer (PBS+0.5% bovine serum albumin+0.09% sodium azide) and incubated at 4° C. for 30 minutes, washed and incubated with PE-labeled anti-human secondary antibody. Cells were incubated at 4° C. for 30 minutes in the dark. Following washing, cytofluorimetric analysis was conducted using a BD FACS Symphony A3 (BD Biosciences). Cells were sorted by scatter properties and separated for single cell analysis using side scatter width vs side scatter area. Antibody binding to cells was quantitated by measuring fluorescent emissions of excitation wavelength of 561 nm using a 586/15 nm filter. All tested c-Kit antibodies were capable of binding to cells expressing c-Kit.
Measuring Fluorescent Intensity (MFI),Percent Positive for c-Kit on M-07e cells [%],Binder
5020,99.5,B1
5200,99.7,B2
3590,99.4,B3
4960,99.8,B4
5190,99.8,B5
4030,99.5,B6

# Molecular target: T4, His-tagged PDGFRb extracellular domain (UniProt P09619 33-532, limits assumed)
# T4 construct: extracellular domain; also called c-Kit family member; not shown: His tag
# Test: ELISA, His-tagged extracellular domain coated
# Procedure: (§3) His-tagged human c-Kit, His-tagged cynomolgus c-Kit, and His-tagged PDGFRa, PDGFRb, CSF1R, and FLT3 extracellular domains were immobilized on 96 well ELISA plates. Plates were washed with PBST (Phosphate buffered saline+0.05% Tween 20) and blocked for 1 hour with 1% BSA in PBS. Following washing with PBST, mAbs were added to the coated plate and incubated for 2 hours at room temperature. Plates were washed and incubated with HRP-conjugated goat anti-human IgG secondary antibody for 1 hour at room temperature. Following washing, antibody binding was detected colorimetrically by adding 3,3′,5,5′-tetramethylbenzidine (TMB) and incubated at room temperature for 10-20 minutes before adding 2.5N sulfuric acid stopping solution. Absorbance at 450 nm was measured on a plate reader (PerkinElmer). Data was analyzed using GraphPad Prism.
# T4 sequence (P09619 33-532 limits assumed): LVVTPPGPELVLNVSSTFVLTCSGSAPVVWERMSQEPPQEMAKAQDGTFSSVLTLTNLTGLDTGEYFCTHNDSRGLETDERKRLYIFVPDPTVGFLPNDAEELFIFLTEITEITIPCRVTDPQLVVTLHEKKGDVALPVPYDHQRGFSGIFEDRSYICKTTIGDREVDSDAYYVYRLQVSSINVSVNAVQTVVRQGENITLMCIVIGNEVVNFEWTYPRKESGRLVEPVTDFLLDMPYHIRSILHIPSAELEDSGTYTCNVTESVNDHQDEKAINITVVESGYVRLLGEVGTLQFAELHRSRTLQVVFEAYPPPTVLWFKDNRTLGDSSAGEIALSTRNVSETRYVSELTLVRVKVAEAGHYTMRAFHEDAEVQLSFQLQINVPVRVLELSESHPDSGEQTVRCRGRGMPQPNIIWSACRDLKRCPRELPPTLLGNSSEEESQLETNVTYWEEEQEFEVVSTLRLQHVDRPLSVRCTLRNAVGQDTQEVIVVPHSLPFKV
row,binding result,Binder
1,no binding,B1
2,no binding,B2
3,no binding,B3
4,no binding,B4
5,no binding,B5
6,no binding,B6

# Molecular target: T5, His-tagged PDGFRa extracellular domain (UniProt P16234 24-528, limits assumed)
# T5 construct: extracellular domain; also called c-Kit family member; not shown: His tag
# Test: ELISA, His-tagged extracellular domain coated
# Procedure: as §3
# T5 sequence (P16234 24-528 limits assumed): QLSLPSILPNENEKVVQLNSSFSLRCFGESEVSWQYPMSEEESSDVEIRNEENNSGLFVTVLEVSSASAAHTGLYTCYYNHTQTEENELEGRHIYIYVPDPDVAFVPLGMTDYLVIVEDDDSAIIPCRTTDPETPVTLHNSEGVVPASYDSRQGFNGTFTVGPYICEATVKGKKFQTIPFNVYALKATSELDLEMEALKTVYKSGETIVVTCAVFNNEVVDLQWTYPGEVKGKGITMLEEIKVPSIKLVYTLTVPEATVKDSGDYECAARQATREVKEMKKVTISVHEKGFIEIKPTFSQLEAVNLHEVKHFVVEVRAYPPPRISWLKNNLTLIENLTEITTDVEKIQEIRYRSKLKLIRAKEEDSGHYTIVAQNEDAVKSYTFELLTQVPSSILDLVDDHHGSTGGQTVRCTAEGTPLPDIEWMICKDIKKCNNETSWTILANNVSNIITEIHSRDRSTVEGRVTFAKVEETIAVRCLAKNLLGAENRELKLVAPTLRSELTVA
row,binding result,Binder
1,no binding,B1
2,no binding,B2
3,no binding,B3
4,no binding,B4
5,no binding,B5
6,no binding,B6

# Molecular target: T6, His-tagged CSF1R extracellular domain (UniProt P07333 20-517, limits assumed)
# T6 construct: extracellular domain; also called c-Kit family member; not shown: His tag
# Test: ELISA, His-tagged extracellular domain coated
# Procedure: as §3
# T6 sequence (P07333 20-517 limits assumed): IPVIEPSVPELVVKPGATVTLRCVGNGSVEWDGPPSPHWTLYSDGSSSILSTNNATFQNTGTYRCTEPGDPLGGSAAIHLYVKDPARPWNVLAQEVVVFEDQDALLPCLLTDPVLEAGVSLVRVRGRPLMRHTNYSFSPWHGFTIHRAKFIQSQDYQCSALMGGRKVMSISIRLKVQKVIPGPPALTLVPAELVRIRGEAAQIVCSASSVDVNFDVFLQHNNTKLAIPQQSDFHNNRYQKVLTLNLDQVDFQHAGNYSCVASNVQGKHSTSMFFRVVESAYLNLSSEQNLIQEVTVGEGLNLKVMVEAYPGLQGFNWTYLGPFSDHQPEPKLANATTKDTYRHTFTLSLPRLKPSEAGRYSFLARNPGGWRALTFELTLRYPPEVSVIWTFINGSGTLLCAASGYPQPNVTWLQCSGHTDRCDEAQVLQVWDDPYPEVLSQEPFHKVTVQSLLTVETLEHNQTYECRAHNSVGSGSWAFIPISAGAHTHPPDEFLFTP
row,binding result,Binder
1,no binding,B1
2,no binding,B2
3,no binding,B3
4,no binding,B4
5,no binding,B5
6,no binding,B6

# Molecular target: T1, His-tagged FLT3 extracellular domain
# Test: ELISA, His-tagged extracellular domain coated
# Procedure: as §3
row,binding result,Binder
1,no binding,B1
2,no binding,B2
3,no binding,B3
4,no binding,B4
5,no binding,B5
6,no binding,B6

# Molecular target: T7, Human siglec-6 expressed on the cell surface (HMC1.2 cells; HEK293 cells expressing human siglec-6) (human, UniProt O43699 27-453)
# T7 construct: whole, on cells; also called cell surface expressed siglec-6; CD327
# Test: flow cytometry on HMC1.2 cells
# Procedure: as §2, with “siglec-6” for “c-Kit”, “siglec-6-expressing” for “c-Kit-expressing”, “HMC1.2” for “M-07e”, “anti-human or anti-mouse” for “anti-human”, “antibodies.” for “antibody.”, “siglec-6.” for “c-Kit.”
# T7 sequence (O43699 27-453): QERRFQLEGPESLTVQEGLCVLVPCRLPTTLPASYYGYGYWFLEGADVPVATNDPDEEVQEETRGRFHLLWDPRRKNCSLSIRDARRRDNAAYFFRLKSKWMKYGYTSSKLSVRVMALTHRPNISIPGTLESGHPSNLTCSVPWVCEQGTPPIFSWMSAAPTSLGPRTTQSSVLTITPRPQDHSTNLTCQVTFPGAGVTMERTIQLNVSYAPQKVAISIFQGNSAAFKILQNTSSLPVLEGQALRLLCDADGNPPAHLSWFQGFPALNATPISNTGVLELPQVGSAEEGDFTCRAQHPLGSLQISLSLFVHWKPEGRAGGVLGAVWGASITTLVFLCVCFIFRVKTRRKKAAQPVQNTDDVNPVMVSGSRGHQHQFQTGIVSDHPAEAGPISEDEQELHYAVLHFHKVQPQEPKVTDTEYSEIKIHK
MFI [MFI],Percent Positive for Siglec-6 on HMC1.2 cells [%],Binder
1970,99.9,B9

# Molecular target: T3, c-Kit expressed on the cell surface of …
# Test: cell-based or functional assay
# Remark: another data set of the same source
row,"IC50, inhibition of SCF-dependent proliferation of M-07e cells [nM]",Binder
1,0.283,B10
2,0.141,B1
3,0.142,B2
4,0.152,B3
5,0.139,B4
6,0.113,B5
7,0.141,B6
